Experimental data from patent publication US20240294650A1 (Alector, published 2024).
Substitutions are numbered along the chain they refer to. One block for each binder: values may come before it.

Key:
[1] = target: T1, endogenous murine MerTK on bone marrow-derived macrophages (mouse, UniProt Q60805 19-994); experiment: FACS, mouse BMDM, WT minus MerTK KO
T1 construct: whole, on cells; MFI on MerTK KO BMDM subtracted; also called BMDM WT-KO
T1 sequence (looked up): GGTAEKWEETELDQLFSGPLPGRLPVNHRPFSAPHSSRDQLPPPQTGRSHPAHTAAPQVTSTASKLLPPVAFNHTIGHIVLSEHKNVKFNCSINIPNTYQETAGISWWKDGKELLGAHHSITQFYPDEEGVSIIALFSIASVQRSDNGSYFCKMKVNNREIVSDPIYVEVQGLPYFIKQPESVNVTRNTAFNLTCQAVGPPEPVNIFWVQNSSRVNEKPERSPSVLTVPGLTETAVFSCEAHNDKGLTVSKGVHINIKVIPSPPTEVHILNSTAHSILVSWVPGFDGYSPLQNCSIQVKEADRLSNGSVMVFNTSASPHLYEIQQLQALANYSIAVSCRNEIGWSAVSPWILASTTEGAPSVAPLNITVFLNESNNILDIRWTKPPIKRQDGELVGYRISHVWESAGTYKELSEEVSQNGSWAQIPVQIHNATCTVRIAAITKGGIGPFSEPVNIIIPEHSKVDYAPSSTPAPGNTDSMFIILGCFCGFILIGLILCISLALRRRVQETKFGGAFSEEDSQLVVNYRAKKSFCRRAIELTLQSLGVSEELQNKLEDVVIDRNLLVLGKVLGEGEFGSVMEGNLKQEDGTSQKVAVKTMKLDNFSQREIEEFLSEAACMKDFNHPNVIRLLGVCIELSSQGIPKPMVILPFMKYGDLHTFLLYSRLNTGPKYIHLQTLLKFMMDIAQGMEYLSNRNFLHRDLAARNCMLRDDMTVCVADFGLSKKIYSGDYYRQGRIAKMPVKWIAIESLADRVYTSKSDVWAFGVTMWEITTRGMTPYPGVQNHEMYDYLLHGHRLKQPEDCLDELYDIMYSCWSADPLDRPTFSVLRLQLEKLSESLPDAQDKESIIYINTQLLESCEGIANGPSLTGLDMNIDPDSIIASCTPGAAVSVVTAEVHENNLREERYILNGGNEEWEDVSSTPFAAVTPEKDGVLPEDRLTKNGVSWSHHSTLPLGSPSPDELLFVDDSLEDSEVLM
Method: (§1) To determine whether recombinant anti-human MerTK antibodies of the present disclosure bind to human MerTK endogenously expressed on SK-MEL-5 cells and CHO cells overexpressing mouse MerTK (CHO-muMerTK OE cells), as compared to A375 and parental CHO cells as negative controls, the following experiments were performed. SK-MEL-5 cells, A375 cells, CHO-muMerTK OE cells, and CHO parental cells were plated at 100,000 cells/well. Anti-MerTK antibodies were added to the cells at 10 μg/ml. After 60 minutes on ice, cells were washed and then stained with PE-conjugated goat anti-human IgG antibody (Southern Biotech Cat #2040-09, Birmingham, AL) in the presence of Fc block solution on ice for 30 minutes, and then washed twice with cold FACS buffer (2% FBS in PBS). Mouse anti-human MerTK-PE conjugated (Biolegend, Clone 590H11G1E3) or anti-mouse MerTK-PE conjugated (ThermoFisher, Clone DS5MMER) antibodies were used as positive controls. Stained cells were acquired on a BD FACS Canto II cytometer and the mean fluorescence intensity (MFI) was calculated with FlowJo.
To confirm anti-MerTK antibody binding to endogenous murine MerTK, bone marrow-derived macrophages (BMDM) were isolated from MerTK wild type (WT) and knockout (KO) mice (The Jackson Laboratory, Cat #011122) using standard protocols. Briefly, cells isolated from the bone marrow were plated in the presence of 50 ng/ml M-CSF (R&D Systems, Cat #416-ML) for seven days to allow for differentiation into macrophages. Cell staining, FACs, and MFI were performed and calculated as described above.

[2] = target: T2, mouse MerTK overexpressed on CHO cells (mouse, UniProt Q60805 19-994); experiment: FACS, CHO-muMerTK OE cells, 10 ug/ml
T2 construct: whole, on cells; also called CHO-muMerTK OE
T2 sequence (looked up): T1 sequence (looked up)
Method: as §1

[3] = target: T3, Recombinant human MerTK-human Fc Chimera protein (human, UniProt Q12866 26-499, limits assumed); experiment: blocking ELISA, Gas6-His on MerTK-Fc, Ab 66.6 nM, isotype=100%
T3 construct: bought construct; also called MerTK-Fc (R&D systems, Cat #391-MR-100)
T3 sequence: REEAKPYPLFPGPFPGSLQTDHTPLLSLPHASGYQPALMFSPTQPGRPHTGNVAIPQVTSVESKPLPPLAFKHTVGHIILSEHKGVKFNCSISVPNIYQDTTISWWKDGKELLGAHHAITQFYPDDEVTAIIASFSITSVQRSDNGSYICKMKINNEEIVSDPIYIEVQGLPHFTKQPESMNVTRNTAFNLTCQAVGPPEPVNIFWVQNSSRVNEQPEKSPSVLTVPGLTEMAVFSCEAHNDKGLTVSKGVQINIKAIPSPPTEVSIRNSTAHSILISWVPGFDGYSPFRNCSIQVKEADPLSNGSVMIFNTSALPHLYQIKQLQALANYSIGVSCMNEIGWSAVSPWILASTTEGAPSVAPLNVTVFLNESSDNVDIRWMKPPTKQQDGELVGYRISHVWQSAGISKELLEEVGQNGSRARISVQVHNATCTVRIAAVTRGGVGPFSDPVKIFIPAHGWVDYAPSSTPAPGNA
Method: Briefly, rabbit anti-human IgG antibody (Jackson ImmunoResearch, Cat #309-005-008) was coated at 2 μg/ml onto high-protein binding plates at 4° C. overnight. After washing with 0.05% Tween20 in PBS three times, 5% BSA in PBS was added for 1 hour. Recombinant human MerTK-human Fe Chimera protein (R&D systems, Cat #391-MR-100) was added at 2 μg/ml for 1 hour and plates were washed before the addition of 40 μl of anti-MerTK hybridoma supernatants and 40 μl of His tag-conjugated recombinant Gas6 (R&D systems, Cat #885-GSB-050) at 3 μg/ml or His tag-conjugated recombinant ProS (R&D systems, Cat #9489-PS-100) at 20 μg/ml. After a further incubation for 1 hour, plates were washed and incubated for 1 hour with HRP-conjugated anti-6×His tagged antibody (Abcam, Cambridge, MA, Cat #ab1187). Plates were then washed and an HRP substrate, TMB, was added to develop the plates. The reaction was stopped by adding 50 μl 2N H₂SO₄ and the OD was measured using a spectrophotometer (BioTek).
Anti-MerTK antibodies were titrated to a final concentration from 66.6 nM to 4 pM and tested against anti-human MerTK antibody M6 (disclosed in WO2016/106221) or isotype control antibody.

B1: MTK-203 (antibody, human IgG1, V domains shown)
VH: QVQLQQPGAELVKPGASVKVSCKASGYTFTNYWMHWVKQRPGQGLEWIGRIHPFDTETNDNQKFKGKATLTVDKSSSTAYMQLSSLTSEDSAVYYCVIPANGGFAYWGQGTLVTVSA
VL: ETTVTQSPASLSVATGEKVTIRCITSTDIGDDMNWYQQKPGEPPKVLISEGNSLRPGVPSRFSSSGYGTDFVFTIENTLSEDVADYFCLQSDNLPLTFGSGTKLEIK
MFI [1]: 2980 MFI
MFI [2]: 2080 MFI

B3: MTK-216 (antibody, human IgG1, V domains shown)
VH: EVQLVESGGGLVKPGGSLKLSCAASGFTFSDYGMHWVRQAPEKGLEWVAFISSGSTTIYYADTVKGRFTISRDNAKNTLILQMTSLRSEDTAIYYCTRGGFHLDYWGQGTTLTVSS
VL: SIMMTQSPSSLAVSAGEKVTMGCKSSQSVLYSANQQNYLAWYQQKPGQSLKLLIYWASTRESGVPDRFTGSGSGTDFTLTISSVQAEDLAVYYCHQYFSSWTFGGGTKLEIK
Percent Gas6 ligand binding [3]: 104%

B5: MTK-209 (antibody, human IgG1, V domains shown)
VH: QVQLQQPGAELVKPGASVKVSCKASGYTFTNYWIHWVKQRPGQGLEWIGRIHPFDSEPNYNQKFKGKATLTVDKSSSTAYMHLTSLTSEDSAVYYCALASFAYWGQGTLVTVSA
VL: ETTVTQSPASLSMAMGEKATIRCITSTDIDDKMNWYQQKPGKPPKLLISAGNTLRPGVPSRFSSSGYGTDFVLTVENMLSEDVADYYCLQGGALPLTFGSGTKLEIK
MFI [1]: 813 MFI
MFI [2]: 1220 MFI

B6: MTK-230 (antibody, human IgG1, V domains shown)
VH: EVQLQQSGPELVKPGASVRIPCKASGYTFSDYNMDWVKQSHGKSLEWIGNINPNIGGTIYSQKFKGKATLTVDKSSSTAYMELRSLTSEDTAVYYCARGDYGFASWGQGTLVTVSA
VL: DIVLTQSPASLTVSLGQRATISCRASRSVSTSGYSYMHWYQQKPGQPPKLLIYLASNLESGVPARFSGSRSGTDFTLNIHPVEEEDAATYYCQHSREYPFTFGSGTKLEIK
MFI [1]: 9120 MFI
MFI [2]: 12400 MFI

B7: MTK-206 (antibody, human IgG1, V domains shown)
VH: QVQLQQSGAELARPGASVKMSCKASGYTFTSYTMHWVKQRPGQGLEWIGYINPSSGYIKNSQKFKDKATLTADKSSSTAYMQLSSLTSEDSAVYYCARTVYGYYGSSPDYWGQGTTLTVSS
VL: DIQMTQSPSSLSASLGERVSLTCRASQDIGSNLNWLQQEPDGTIKRLIYATSSLESGVPKRFSGSRSGSDYSLTISSLESEDFVDYYCLQYDSSPWTFGGGTKLEIK
MFI [1]: 431 MFI
Percent Gas6 ligand binding [3]: 103%

B8: MTK-210 (antibody, human IgG1, V domains shown)
VH: QVQLQQSGPELVKPGASVKISCKASDYEFSRSWMNWVKQRPGKGLEWIGRIYPGDGDTNYNGKFKGKATLTADKSSNTAYMQLNSLTSEDSAVYFCARKGGYYYSISNYFDYWGQGTTLTVSS
VL: QIVLTQSPAIMSASPGVKVTMTCSASSSVSYMHWYQQKPGSSPRLLIYDTSNLASGVPVRFSGSGSGTSYSLTISRMEAEDAATYYCQQWSSYPPYTFGGGTKLEIK
Percent Gas6 ligand binding [3]: 114%
MFI [2]: 252 MFI

B9: MTK-221 (antibody, human IgG1, V domains shown)
VH: QVTLKESGPGMLQSSQTLSLTCSFSGFSLSTSGMGVSWIRQPSGKGLEWLAHIYWDDDKRYNTSLQSRLTISKDTSRNQVFLKITSVDTADTATYFCGRLGAYSAFPYYFDYWGQGTTLTVSS
VL: DIQMTQSPSSLSASLGGKVTITCKASQDIHKHIAWYQHKPGKGPRLLIHYTSTLQPGIPSRFSGSGSGRDYSFSISNLEPEDLATYYCLQYDNLWTFGGGTKLEIK
Percent Gas6 ligand binding [3]: 106%
MFI [2]: 374 MFI

B11: MTK-214 (antibody, human IgG1, V domains shown)
VH: QVQLQQPGAELVKPGASVKVSCKASGYTFTNYWMHWMKQRPGQGLEWIGRIHPFDSDTNYNEKFTDKATLTVDKSSSTAYMQLSSLTSEDSAVYYCAIGTLIYWGQGTTLTASS
VL: DILLTQSPATLSVTPGETVSLSCRASQSIYKKLHWFQQRSHRSPRLLIKFASDSISGIPSRFTGSGSGTDYTLSINSVKPEDEAIYYCLQGYSTPLTFGAGTKLELK
MFI [1]: 2950 MFI

More lines, now with the values ahead:

Percent Gas6 ligand binding [3]: 112%
MFI [2]: 252 MFI
B2: MTK-201 (antibody, human IgG1, V domains shown)
VH: QVQLRQSGPGLVQPSQSLSITCTVSGFSLSNYGLHWVRQSPGKGLEWLGVIWSGGITDYNAAFISRLSIIKDNSRSQVFFKMNSLQADDTAIYYCARKGHDPYAMDFWGQGTSVTVSS
VL: QIVLTQSPPIMSAFLGERVTMTCTASSSVSSSYLHWYRQMPGSSPKLWIYDTSNLASGVPARFSGSGSGTSYSLTISSMEAEDAATYYCHQYHHSPYTFGGGTKLEIK

MFI [1]: 1860 MFI
MFI [2]: 616 MFI
B4: MTK-224 (antibody, human IgG1, V domains shown)
VH: B5 VH with N31S, I34M, E57D, P58T, H82Q, T84S, A97S, L98I, S100G
VL: DIVMTQSPATLSVTPGDRVSLSCRASQIISDYLNWYQQKSHESPRLLIKYASQSISGIPSRFSGSGSGSDFTLSINSVEPEDVGVYYCQNGHSFPLTFGAGTKLELK

Percent Gas6 ligand binding [3]: 107%
MFI [2]: 329 MFI
B10: MTK-208 (antibody, human IgG1, V domains shown)
VH: QVQLQQPGAELVVPGASVRLSCKASGYTFINYWMHWVKQRPGQGLEWIGEIDPSDSYANYNQKFKDKSTLSLDKSSSTAYMQLSSLTSEDSAVYYCARCDYYGRLDYWGQGTTLTVSS
VL: QVVLTQSPAIMSASPGEKVTITCSASSSVSYMLWFQQKPGTSPKLWIYSTSNLASGVPARFSGSGSGTSYSLTISRLEAEDAATYYCQQRSSYPPITFGAGTKLELK
